Assay results taken from patent publication US7718391B2, “Assays for identifying modulators of rhomboid polypeptides” (Medical Research Council, priority 2001, dated 2010).

T1: Drosophila EGF receptor (UniProt P04412)
T1 sequence: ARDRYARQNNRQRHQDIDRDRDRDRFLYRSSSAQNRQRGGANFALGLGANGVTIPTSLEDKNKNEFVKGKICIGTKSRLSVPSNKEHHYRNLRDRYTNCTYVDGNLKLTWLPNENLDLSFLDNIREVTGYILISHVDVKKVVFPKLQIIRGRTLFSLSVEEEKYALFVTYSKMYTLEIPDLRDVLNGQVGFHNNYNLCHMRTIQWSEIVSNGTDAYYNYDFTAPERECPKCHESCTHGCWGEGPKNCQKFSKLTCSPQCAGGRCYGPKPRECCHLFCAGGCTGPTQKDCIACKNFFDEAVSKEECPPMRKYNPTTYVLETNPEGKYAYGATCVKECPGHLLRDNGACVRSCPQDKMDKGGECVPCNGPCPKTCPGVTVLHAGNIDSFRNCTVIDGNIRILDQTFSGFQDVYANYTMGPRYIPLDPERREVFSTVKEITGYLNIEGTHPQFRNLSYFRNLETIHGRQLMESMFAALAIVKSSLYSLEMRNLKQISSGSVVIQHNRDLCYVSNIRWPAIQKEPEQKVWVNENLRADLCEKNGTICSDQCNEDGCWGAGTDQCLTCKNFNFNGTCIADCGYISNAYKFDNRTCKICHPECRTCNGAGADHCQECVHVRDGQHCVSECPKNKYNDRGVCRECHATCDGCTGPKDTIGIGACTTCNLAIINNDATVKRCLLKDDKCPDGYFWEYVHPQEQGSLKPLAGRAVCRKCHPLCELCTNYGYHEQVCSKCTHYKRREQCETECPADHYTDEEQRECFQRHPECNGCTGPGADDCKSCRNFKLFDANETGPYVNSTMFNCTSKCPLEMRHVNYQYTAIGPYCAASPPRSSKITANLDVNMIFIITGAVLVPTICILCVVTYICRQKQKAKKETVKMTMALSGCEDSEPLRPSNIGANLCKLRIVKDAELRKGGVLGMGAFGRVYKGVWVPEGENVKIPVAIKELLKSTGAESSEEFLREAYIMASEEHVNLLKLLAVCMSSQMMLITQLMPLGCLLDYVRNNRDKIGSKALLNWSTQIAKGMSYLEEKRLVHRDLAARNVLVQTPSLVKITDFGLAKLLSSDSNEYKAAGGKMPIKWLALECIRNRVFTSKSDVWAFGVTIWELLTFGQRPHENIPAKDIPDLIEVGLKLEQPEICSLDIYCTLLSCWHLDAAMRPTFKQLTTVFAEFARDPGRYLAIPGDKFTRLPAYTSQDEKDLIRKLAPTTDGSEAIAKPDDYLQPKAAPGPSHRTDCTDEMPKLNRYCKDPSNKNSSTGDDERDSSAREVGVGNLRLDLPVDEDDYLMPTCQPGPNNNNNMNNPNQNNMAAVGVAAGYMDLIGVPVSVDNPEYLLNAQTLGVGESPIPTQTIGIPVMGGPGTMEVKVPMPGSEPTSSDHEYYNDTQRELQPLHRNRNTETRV

T2: Drosophila Gurken
T2 sequence: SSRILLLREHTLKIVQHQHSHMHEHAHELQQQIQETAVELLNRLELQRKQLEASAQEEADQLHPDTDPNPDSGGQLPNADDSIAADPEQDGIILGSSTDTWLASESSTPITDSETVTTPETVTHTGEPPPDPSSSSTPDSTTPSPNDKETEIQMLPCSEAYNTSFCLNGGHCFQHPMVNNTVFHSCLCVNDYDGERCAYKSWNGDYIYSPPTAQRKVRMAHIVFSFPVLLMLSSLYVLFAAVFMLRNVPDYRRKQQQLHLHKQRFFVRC

T3: Drosophila Keren
T3 sequence: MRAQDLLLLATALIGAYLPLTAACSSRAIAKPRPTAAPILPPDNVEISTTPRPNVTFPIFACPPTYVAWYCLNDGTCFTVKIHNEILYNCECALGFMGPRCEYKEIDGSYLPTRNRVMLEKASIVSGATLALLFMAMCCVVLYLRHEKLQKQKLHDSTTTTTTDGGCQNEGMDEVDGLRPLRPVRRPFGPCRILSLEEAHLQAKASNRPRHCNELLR

T4: GFP-Spitz (Drosophila Spitz with EGFP inserted between residues 33 and 34)
T4 sequence: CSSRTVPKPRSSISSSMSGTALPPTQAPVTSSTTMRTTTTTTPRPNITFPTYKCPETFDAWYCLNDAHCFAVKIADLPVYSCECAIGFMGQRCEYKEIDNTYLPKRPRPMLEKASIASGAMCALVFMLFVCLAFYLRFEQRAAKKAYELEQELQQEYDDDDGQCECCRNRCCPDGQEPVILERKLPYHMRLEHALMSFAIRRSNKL

T5: Drosophila Delta, P10041
T5 chain: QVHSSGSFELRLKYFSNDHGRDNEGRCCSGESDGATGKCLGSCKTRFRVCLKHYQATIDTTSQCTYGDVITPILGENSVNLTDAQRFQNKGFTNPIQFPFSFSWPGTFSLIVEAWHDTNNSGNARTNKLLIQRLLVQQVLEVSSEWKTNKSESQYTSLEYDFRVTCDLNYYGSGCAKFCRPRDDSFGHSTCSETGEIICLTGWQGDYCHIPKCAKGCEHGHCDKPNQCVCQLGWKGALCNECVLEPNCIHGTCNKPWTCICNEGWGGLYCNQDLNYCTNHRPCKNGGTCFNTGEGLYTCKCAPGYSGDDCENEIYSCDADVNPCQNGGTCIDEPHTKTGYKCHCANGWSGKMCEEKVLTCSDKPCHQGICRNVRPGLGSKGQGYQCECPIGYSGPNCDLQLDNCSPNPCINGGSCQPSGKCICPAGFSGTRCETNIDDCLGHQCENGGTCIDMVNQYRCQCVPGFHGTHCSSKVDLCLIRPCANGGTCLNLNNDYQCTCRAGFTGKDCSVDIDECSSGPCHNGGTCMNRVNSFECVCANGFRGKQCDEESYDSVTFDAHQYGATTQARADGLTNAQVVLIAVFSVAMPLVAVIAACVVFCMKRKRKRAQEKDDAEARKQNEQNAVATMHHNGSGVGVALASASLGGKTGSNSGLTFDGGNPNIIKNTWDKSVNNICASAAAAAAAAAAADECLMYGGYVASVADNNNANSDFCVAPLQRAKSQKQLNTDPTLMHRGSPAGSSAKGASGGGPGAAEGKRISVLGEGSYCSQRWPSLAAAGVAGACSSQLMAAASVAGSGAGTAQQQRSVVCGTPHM

T6: Drosophila EGF receptor, P04412
T6 chain: T1 sequence

B1: Drosophila Rhomboid-1 (triple HA tag at the N-terminus) (protein)
chain: MENPTQNVNETKVDLGQEKEKEASQEEEHATAAKETIIDIPAACSSSSNSSSYDTDCSTASSTCCTRQGEHIYMQREAIPATPLPESEDIGLLKYVHRQHWPWFILVISIIEIAIFAYDRYTMPAQNFGLPVPIPSDSVLVYRPDRRLQVWRFFSYMFLHANWFHLGFNIVIQLFFGIPLEVMHGTARIGVIYMAGVFAGSLGTSVVDSEVFLVGASGGVYALLAAHLANITLNYAHMKSASTQLGSVVIFVSCDLGYALYTQYFDGSAFAKGPQVSYIAHLTGALAGLTIGFLVLKNFGHREYEQLIWWLALGVYCAFTVFAIVFNLINTVTAQLMEEQGEVITQHLLHDLGVS

Tests used:
[1] = biological target: T1, Drosophila EGF receptor
[2] = tested on: T2, Drosophila Gurken
[3] = tested on: T3, Drosophila Keren
[4] = tested on: T4, GFP-Spitz (Drosophila Spitz with EGFP inserted between residues 33 and 34)
[5] = tested on: human TGFα (EGFP inserted between residues 32 and 33)
[6] = tested on: uncleavable Spitz-TGFα chimera (Spitz with residues 140-160 replaced by the equivalent residues from TGFα, with the TGFα C-terminus)
[7] = biological target: T5, Drosophila Delta, P10041
[8] = biological target: T6, Drosophila EGF receptor, P04412
[9] = biological target: human TGFα (EGFP inserted between residues 32 and 33); remark: listed apart in the source
[10] = biological target: human TGN38
[11] = biological target: uncleavable Spitz-TGFα chimera (Spitz with residues 140-160 replaced by the equivalent residues from TGFα, with the TGFα C-terminus); remark: listed apart in the source
[12] = biological target: uncleavable Spitz-TGFα chimera with Spitz residue G143 restored in the TGFα TMD

Molecule | cleavage of polypeptide substrates [1] | cleavage of polypeptide substrates [2] | cleavage of polypeptide substrates [3] | cleavage of polypeptide substrates [4] | cleavage of polypeptide substrates [5] | cleavage of polypeptide substrates [6] | cleavage of type-I membrane proteins [7] | cleavage of type-I membrane proteins [8] | cleavage of type-I membrane proteins [9] | cleavage of type-I membrane proteins [10] | cleavage of Spitz/TGFα TMD chimeras, without Star, with batimastat [11] | cleavage of the uncleavable Spitz-TGFα chimera with single Spitz residues put back [12]
Drosophila Rhomboid-4 | Rhomboid-4 cleaves all the polypeptide substrates tested so far, including ... the completely unrelated Drosophila EGF receptor | Rhomboid-4 cleaves all the polypeptide substrates tested so far, including ... Gurken | Rhomboid-4 cleaves all the polypeptide substrates tested so far, including ... Keren | Rhomboid-4 cleaves all the polypeptide substrates tested so far, including Spitz | Rhomboid-4 cleaves all the polypeptide substrates tested so far, including ... human TGFα | Rhomboid-4 cleaves all the polypeptide substrates tested so far, including ... the 'non-cleavable' Spitz/TGFα chimera | – | – | – | – | – | –
B1 | – | – | – | – | – | – | Rhomboid-1 could not cleave other type-I membrane proteins including ... Drosophila Delta | Rhomboid-1 could not cleave other type-I membrane proteins including Drosophila EGF receptor | Rhomboid-1 could not cleave other type-I membrane proteins including ... human TGFα | Rhomboid-1 could not cleave other type-I membrane proteins including ... human TGN38 | replacing the remaining 5 residues (residues 140-160) abolished cleavage | substitution of only Spitz residue G143 restored cleavage of this chimeric substrate
